Results reported in patent US20230192857A1 (published 2023).
Read-outs that look alike come from different tables or passages of the source. Non-standard residues stand in square brackets, D forms with d. No end group written: not given here. pY = N[C@@H](Cc1ccc(OP(=O)(O)O)cc1)C(=O)O

Assays:
[1] = biological target: T1, hCIS-SH2-BC complex (recombinant trimeric complex of human GST-CIS-SH2 construct with Elongins B and C) (UniProt Q9NSE2 66-258; Q15370 1-118; Q15369 17-112); experiment: ITC
[2] = biological target: T1, hCIS-SH2-BC complex (recombinant …); experiment: ITC; remark: listed apart in the source

Row | Binder | Kd [1] | Kd [2]
1 | EIEACQV[pY]FTYDPYSE [phosphopeptide corresponding to Tyr355 within the IL-2Rβ (printed 'IL-2R13') cytoplasmic domain] | 940 nM | 940 nM
2 | VYFTYDP[pY]SEEDPDEG [phosphopeptide corresponding to Tyr361 within the IL-2Rβ (printed 'IL-2R13') cytoplasmic domain] | 1500 nM | 1500 nM
3 | LSGEDDA[pY]CTFPSRDD [phosphopeptide corresponding to Tyr392 within the IL-2Rβ (printed 'IL-2R13') cytoplasmic domain] | 1800 nM | 1800 nM
